Holding throughout (settings): both partners purified
Test [1] concerns the target T1, ICOS-L-P (Q51P)-His (UniProt O75144 19-256, Q51P).
T1 construct: plasmid pMAZ-ICOS-L-P (Q51P)-His; source: Expi293F, transient transfection, purified (Ni-NTA agarose, SEC)
T1 sequence (looked up): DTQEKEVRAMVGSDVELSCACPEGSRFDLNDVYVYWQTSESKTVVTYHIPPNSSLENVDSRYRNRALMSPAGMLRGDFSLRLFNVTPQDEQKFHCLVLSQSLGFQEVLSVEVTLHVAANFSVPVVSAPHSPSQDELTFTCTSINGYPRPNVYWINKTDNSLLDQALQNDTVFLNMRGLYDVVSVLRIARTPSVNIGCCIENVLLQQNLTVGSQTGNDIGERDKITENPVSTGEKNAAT
Kind of test: BLI; Octet R8; hICOS-Fc (5 µg/mL) immobilised on a Protein A biosensor; serial dilutions of ICOS-L variants, 10 min association, 10 min dissociation, 1× PBS pH 7.4.

Test [2] addresses T2, ICOS-L-H (N57H)-His (UniProt O75144 19-256, N57H).
T2 construct: plasmid pMAZ-ICOS-L-H(N57H)-His; source: Expi293F, transient transfection, purified (Ni-NTA agarose, SEC)
T2 sequence (looked up): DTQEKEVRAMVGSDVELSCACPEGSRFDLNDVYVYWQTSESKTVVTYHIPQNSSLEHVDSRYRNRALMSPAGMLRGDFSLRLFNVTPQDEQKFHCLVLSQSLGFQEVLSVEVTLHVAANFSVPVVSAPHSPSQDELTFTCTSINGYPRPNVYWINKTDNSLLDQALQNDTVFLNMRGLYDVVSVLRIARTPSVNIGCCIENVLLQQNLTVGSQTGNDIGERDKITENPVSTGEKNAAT
The description is as above.

Test [3] has as its target T3, ICOS-L Y8 (Q51P, N57H)-His (UniProt O75144 19-256, Q51P | N57H).
T3 construct: plasmid pMAZ-ICOS-L-Y8(Q51P, N57H)-His; also called Y8 variant; source: Expi293F, transient transfection, purified (Ni-NTA agarose, SEC)
T3 sequence (looked up): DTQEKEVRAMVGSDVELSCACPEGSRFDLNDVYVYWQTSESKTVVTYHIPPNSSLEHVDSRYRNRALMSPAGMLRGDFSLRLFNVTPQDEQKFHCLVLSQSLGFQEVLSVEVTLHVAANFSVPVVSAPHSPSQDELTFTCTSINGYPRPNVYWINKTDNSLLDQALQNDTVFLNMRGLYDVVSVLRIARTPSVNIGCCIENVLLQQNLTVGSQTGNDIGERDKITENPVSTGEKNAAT
Described as above.

In test [4] the target is T4, ICOS-L wild-type-His (UniProt O75144 19-256).
T4 construct: ICOS ligand (ICOS-L, B7-H2, CD275), ectodomain D1-T238; plasmid pMAZ-ICOS-L-wild-type-His; also called wild-type ICOS-L; B7-H2; source: Expi293F, transient transfection, purified (Ni-NTA agarose, SEC)
T4 sequence (looked up): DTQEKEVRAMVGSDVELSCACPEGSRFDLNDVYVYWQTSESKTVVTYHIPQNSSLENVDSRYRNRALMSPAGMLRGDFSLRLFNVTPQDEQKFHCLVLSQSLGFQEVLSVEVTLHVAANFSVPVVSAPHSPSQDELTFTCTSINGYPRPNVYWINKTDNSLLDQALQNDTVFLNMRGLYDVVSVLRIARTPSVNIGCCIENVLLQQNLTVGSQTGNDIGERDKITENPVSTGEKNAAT
Described as above.

Test [5] has as its target T3, ICOS-L Y8 (Q51P, N57H)-His. Kind of test: ELISA; ICOS-Fc (hICOS-Fc or mICOS-Fc) coated at 4 µg/mL in 0.05 M Na2CO3 pH 9.6; serially diluted His-tagged ICOS-L variants, detected with mouse anti-His-HRP.

The term Kd denotes the concentration at which binding is half-saturated. As a reminder, the koff is the rate constant with which the complex falls apart. What is called kon is the second-order rate constant of association.

B1: hICOS-Fc (Fc fusion, human, UniProt Q9Y6W8 21-140, looked up)
chain: EINGSANYEMFIFHNGGVQILCKYPDIVQQFKMQLLKGGQILCDLTKTKGSGNTVSIKSLKFCHSQLSNNSVSFFLYNLDHSHANYYFCNLSIFDPPPFKVTLTGGYLHIYESQLCCQLK
notes: human Inducible T-cell Co-Stimulator (ICOS), extracellular domain E21-K140; plasmid pMAZ-hICOS-Fc; also called hICOS-hFc; human ICOS ectodomain fused to human Fc; source: Expi293F, transient transfection, purified (Protein A resin)
As to B1, the Kd in test [1] came out at 4.75 nM; in test [2], 23.3 nM; in test [3] it was 1.19 nM; in test [4] it was 113 nM. Further, the koff is 0.000961 s⁻¹ in test [1], 0.00567 s⁻¹ in test [2], 0.000179 s⁻¹ in test [3] and 0.0337 s⁻¹ in test [4]. Also, the kon in test [1] turned out to be 202000 M⁻¹ s⁻¹; in test [2], 244000 M⁻¹ s⁻¹; in test [3], 150000 M⁻¹ s⁻¹; in test [4], 298000 M⁻¹ s⁻¹.

B2: mouse ICOS (E21-K141)-hFc (Fc fusion, UniProt Q9WVS0 21-141, looked up)
chain: EINGSADHRMFSFHNGGVQISCKYPETVQQLKMRLFREREVLCELTKTKGSGNAVSIKNPMLCLYHLSNNSVSFFLNNPDSSQGSYYFCSLSIFDPPPFQERNLSGGYLHIYESQLCCQLK
notes: mouse ICOS, E21-K141; Plasmid pMAZ-mICOS-Fc; also called mICOS-Fc; source: Expi293F, transient transfection, purified (Protein A resin)
As for B2, the binding result in test [5] is given as “binds”.

For the origin of these results see article PMC12255069 (Journal of Biological Engineering, 2025).
